Source: patent US20250129150A1 (APOGEE THERAPEUTICS, published 2025)
Numbering of substitutions follows the chain as printed.

Columns and labels:
hIL-13 [1] = target: T1, hIL-13 (human, UniProt P35225 35-146, limits assumed); assay: ELISA
T1 construct: IL-13 as used in the cell assays, the ELISA, the binning study and HDX-MS/XL-MS; also called human IL-13; Hu IL-13

hIL-13 [2] = target: T1, hIL-13; assay: cell-based or functional assay
hIL-13 [3] = target: T1, hIL-13; assay: cell-based or functional assay; remark: listed apart in the source
biotinylated hIL-13 = biotinylated hIL-13 (human, UniProt P35225 35-146, limits assumed, biotinylated (site not stated)); assay: FACS; blockade of biotinylated hIL-13 (0.05 ug/mL) binding to HEK293 cells expressing hIL-13Rα1/hIL-4Rα
Protocol: Briefly, HEK293 previously transduced to stably express both hIL-13Rα and hIL-4Rα were cultured and harvested. Cells were seeded at 200,000 cells in 100 uL per well. Cells were washed and the supernatant was discarded. […] The cells were stained in this mixture at 4° C. for 1 hour. […] Cells were incubated at 4° C. for 1 hour, protected from light. Cells were then washed and the median fluorescence intensity (MFI) of cells in each well were recorded by FACS using a BD FACSCanto II. Subsequent data were analyzed using GraphPad Prism.

[4] = target: T2, Recombinant Cynomolgus IL-13 Protein, His Tag (SINO BIOLOGICAL, Cat. 11057-C07H) (cynomolgus monkey, UniProt Q5I6E4 19-132 (Macaca thibetana entry)); assay: SPR (Biacore 8K), mAb captured on Protein G chip, IL-13 as analyte
T2 construct: also called Cyno IL-13; cynomolgus monkey IL-13
T2 chain: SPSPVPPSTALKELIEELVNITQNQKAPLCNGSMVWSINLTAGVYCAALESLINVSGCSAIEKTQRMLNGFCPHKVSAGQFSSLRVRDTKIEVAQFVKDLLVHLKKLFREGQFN
Protocol: (§1) Samples were injected in a multi-cycle manner over freshly captured mAb, by regenerating the capture surfaces with injection of glycine pH 1.5 for 30 sec at a flow rate of 30 μL/min. The data was processed and analyzed with Biacore Insight Evaluation Software Version 2.0.15.12933 (GE Healthcare) as follows. […] The responses from the two buffer blank injections were then subtracted from the reference subtracted data (2-1) to yield double-referenced data, which were fit to an 1:1 binding model to determine the apparent association (ka) and dissociation rate constants (kd). Their ratio provided the apparent equilibrium dissociation constant or affinity constant (KD=kd/ka).

[5] = target: T3, Recombinant Human IL-13 Protein, His Tag (Acro Cat. IL3-H52H4) (human, UniProt P35225 35-146); assay: as above
T3 construct: Bought protein; also called Hu IL-13; not shown: His Tag
Protocol: as §1

hIL-13 [6] = target: T1, hIL-13; assay: cell-based or functional assay; remark: listed apart in the source

T1 sequence (P35225 other isoform, or with tags, fused parts or gaps limits assumed): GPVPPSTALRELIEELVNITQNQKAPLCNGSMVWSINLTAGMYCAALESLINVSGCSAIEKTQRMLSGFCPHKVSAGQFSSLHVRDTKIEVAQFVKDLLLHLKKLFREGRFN
T3 sequence (P35225 other isoform, or with tags, fused parts or gaps limits assumed): as above
Sequence of biotinylated hIL-13 (P35225 other isoform, or with tags, fused parts or gaps limits assumed): as above

B1: Construct 128 (antibody, human IgG4, kappa)
heavy: QVTLRESGPALVKPTQTLTLTCTVSGFSLSAYSVNWIRQPPGKALEWLAMIWGDGKIVYNSALKSRLTISKDTSKNQVVLTMTNMDPVDTATYYCAGDGYYPYAMDNWGQGSLVTVSSASTKGPSVFPLAPCSRSTSESTAALGCLVKDYFPEPVTVSWNSGALTSGVHTFPAVLQSSGLYSLSSVVTVPSSSLGTKTYTCNVDHKPSNTKVDKRVESKYGPPCPSCPAPEFLGGPSVFLFPPKPKDTLYITREPEVTCVVVDVSQEDPEVQFNWYVDGVEVHNAKTKPREEQFNSTYRVVSVLTVLHQDWLNGKEYKCKVSNKGLPSSIEKTISKAKGQPREPQVYTLPPSQEEMTKNQVSLTCLVKGFYPSDIAVEWESNGQPENNYKTTPPVLDSDGSFFLYSRLTVDKSRWQEGNVFSCSVMHEALHNHYTQKSLSLSLGK
light: DIVMTQSPDSLSVSLGERATINCRASKSVDSYGNSFMHWYQQKPGQPPKLLIYLASNLESGVPDRFSGSGSGTDFTLTISSLQAEDVAVYYCQQNNEDPRTFGGGTKVEIKRTVAAPSVFIFPPSDEQLKSGTASVVCLLNNFYPREAKVQWKVDNALQSGNSQESVTEQDSKDSTYSLSSTLTLSKADYEKHKVYACEVTHQGLSSPVTKSFNRGEC
notes: also called Lebrikizumab-HC; Lebrikizumab-LC
- Kd (hIL-13 [1]): 0.067 nM
- TF-1 Proliferation Inhibition IC50 (hIL-13 [2]): 0.2 nM
- TARC Inhibition IC50 (A549 cells) (hIL-13 [3]): 1.01 nM
- IC50 (biotinylated hIL-13): 0.95 nM
- Kd [4]: 0.298 nM
- Kd [5]: 0.0915 nM
- pSTAT6 Inhibition IC50 (HT-29 cells) (hIL-13 [6]): 0.28 nM

B2: Construct 144 (antibody, human IgG1, kappa, L234A L235A)
heavy: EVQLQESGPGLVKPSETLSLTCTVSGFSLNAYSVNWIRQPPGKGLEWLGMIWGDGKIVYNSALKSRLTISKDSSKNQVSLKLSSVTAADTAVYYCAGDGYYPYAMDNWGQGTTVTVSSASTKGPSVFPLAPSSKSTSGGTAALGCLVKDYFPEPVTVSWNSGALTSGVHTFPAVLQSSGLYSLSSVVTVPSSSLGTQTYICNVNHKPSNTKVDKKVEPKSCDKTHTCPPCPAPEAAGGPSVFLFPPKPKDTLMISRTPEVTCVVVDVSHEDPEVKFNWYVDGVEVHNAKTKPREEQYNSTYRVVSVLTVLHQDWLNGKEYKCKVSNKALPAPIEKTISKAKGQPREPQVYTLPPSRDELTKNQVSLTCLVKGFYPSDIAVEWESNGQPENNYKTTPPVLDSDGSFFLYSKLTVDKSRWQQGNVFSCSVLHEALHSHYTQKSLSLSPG
light: DIQLTQSPSSLSASVGDRVTITCRASKSVDSYGNSFMHWYQQKPGKAPKLLIYLASELESGVPSRFSGSGSGTDFTLTISSLQPEDFATYYCQQNNEDPRTFGGGTKVEIKRTVAAPSVFIFPPSDEQLKSGTASVVCLLNNFYPREAKVQWKVDNALQSGNSQESVTEQDSKDSTYSLSSTLTLSKADYEKHKVYACEVTHQGLSSPVTKSFNRGEC
notes: also called HC1; LC6_m8
- Kd (hIL-13 [1]): 0.014 nM
- TF-1 Proliferation Inhibition IC50 (hIL-13 [2]): 0.17 nM
- TARC Inhibition IC50 (A549 cells) (hIL-13 [3]): 0.91 nM
- IC50 (biotinylated hIL-13): 0.94 nM
- Kd [4]: 0.228 nM
- Kd [5]: 0.0263 nM
- pSTAT6 Inhibition IC50 (HT-29 cells) (hIL-13 [6]): 0.3 nM

B3: Construct 132 (antibody, human IgG1, kappa, L234A L235A)
heavy: EVQLLESGGGLVQPGGSLRLSCAASGFSLNAYSVNWVRQAPGKGLEWLGMIWGDGKIVYNSALKSRLTISKDSSKNTVYLQMNSLRAEDTAVYYCAGDGYYPYAMDNWGQGTTVTVSSASTKGPSVFPLAPSSKSTSGGTAALGCLVKDYFPEPVTVSWNSGALTSGVHTFPAVLQSSGLYSLSSVVTVPSSSLGTQTYICNVNHKPSNTKVDKKVEPKSCDKTHTCPPCPAPEAAGGPSVFLFPPKPKDTLYITREPEVTCVVVDVSHEDPEVKFNWYVDGVEVHNAKTKPREEQYNSTYRVVSVLTVLHQDWLNGKEYKCKVSNKALPAPIEKTISKAKGQPREPQVYTLPPSRDELTKNQVSLTCLVKGFYPSDIAVEWESNGQPENNYKTTPPVLDSDGSFFLYSKLTVDKSRWQQGNVFSCSVMHEALHNHYTQKSLSLSPG
light: B2 light with E57N
notes: also called HC5; LC6
- TF-1 Proliferation Inhibition IC50 (hIL-13 [2]): 0.13 nM
- TARC Inhibition IC50 (A549 cells) (hIL-13 [3]): 0.87 nM
- IC50 (biotinylated hIL-13): 0.99 nM
- Kd [4]: 0.331 nM
- Kd [5]: 0.135 nM
- pSTAT6 Inhibition IC50 (HT-29 cells) (hIL-13 [6]): 0.37 nM

B4: Construct 140 (antibody, human IgG1, kappa, L234A L235A)
heavy: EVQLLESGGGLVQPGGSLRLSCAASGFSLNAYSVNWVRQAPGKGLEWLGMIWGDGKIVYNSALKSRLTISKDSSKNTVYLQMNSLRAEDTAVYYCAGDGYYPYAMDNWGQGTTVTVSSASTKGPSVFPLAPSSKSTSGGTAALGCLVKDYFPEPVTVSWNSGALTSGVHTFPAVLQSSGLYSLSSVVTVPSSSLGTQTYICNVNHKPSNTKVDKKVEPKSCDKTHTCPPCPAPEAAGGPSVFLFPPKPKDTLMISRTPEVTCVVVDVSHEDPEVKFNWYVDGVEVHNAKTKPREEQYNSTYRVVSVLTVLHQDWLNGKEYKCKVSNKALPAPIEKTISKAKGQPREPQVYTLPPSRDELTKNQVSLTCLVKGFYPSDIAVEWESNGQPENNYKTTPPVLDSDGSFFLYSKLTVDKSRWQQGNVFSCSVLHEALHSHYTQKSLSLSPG
light: B2 light
notes: also called HC5; LC6_m8
- Kd (hIL-13 [1]): 0.02 nM
- TF-1 Proliferation Inhibition IC50 (hIL-13 [2]): 0.14 nM
- TARC Inhibition IC50 (A549 cells) (hIL-13 [3]): 0.94 nM
- Kd [4]: 0.252 nM
- Kd [5]: 0.0475 nM
- pSTAT6 Inhibition IC50 (HT-29 cells) (hIL-13 [6]): 0.33 nM

B5: Construct 138 (antibody, human IgG4, kappa)
heavy: EVQLLESGGGLVQPGGSLRLSCAASGFSLNAYSVNWVRQAPGKGLEWLGMIWGDGKIVYNSALKSRLTISKDSSKNTVYLQMNSLRAEDTAVYYCAGDGYYPYAMDNWGQGTTVTVSSASTKGPSVFPLAPCSRSTSESTAALGCLVKDYFPEPVTVSWNSGALTSGVHTFPAVLQSSGLYSLSSVVTVPSSSLGTKTYTCNVDHKPSNTKVDKRVESKYGPPCPSCPAPEFLGGPSVFLFPPKPKDTLYITREPEVTCVVVDVSQEDPEVQFNWYVDGVEVHNAKTKPREEQFNSTYRVVSVLTVLHQDWLNGKEYKCKVSNKGLPSSIEKTISKAKGQPREPQVYTLPPSQEEMTKNQVSLTCLVKGFYPSDIAVEWESNGQPENNYKTTPPVLDSDGSFFLYSRLTVDKSRWQEGNVFSCSVMHEALHNHYTQKSLSLSLGK
light: B2 light
notes: also called HC5; LC6_m8
- TF-1 Proliferation Inhibition IC50 (hIL-13 [2]): 0.23 nM
- TARC Inhibition IC50 (A549 cells) (hIL-13 [3]): 0.97 nM
- IC50 (biotinylated hIL-13): 1.01 nM
- Kd [4]: 0.348 nM
- Kd [5]: 0.108 nM
- pSTAT6 Inhibition IC50 (HT-29 cells) (hIL-13 [6]): 0.19 nM

B6: Construct 139 (antibody, human IgG4, kappa)
heavy: EVQLLESGGGLVQPGGSLRLSCAASGFSLNAYSVNWVRQAPGKGLEWLGMIWGDGKIVYNSALKSRLTISKDSSKNTVYLQMNSLRAEDTAVYYCAGDGYYPYAMDNWGQGTTVTVSSASTKGPSVFPLAPCSRSTSESTAALGCLVKDYFPEPVTVSWNSGALTSGVHTFPAVLQSSGLYSLSSVVTVPSSSLGTKTYTCNVDHKPSNTKVDKRVESKYGPPCPSCPAPEFLGGPSVFLFPPKPKDTLMISRTPEVTCVVVDVSQEDPEVQFNWYVDGVEVHNAKTKPREEQFNSTYRVVSVLTVLHQDWLNGKEYKCKVSNKGLPSSIEKTISKAKGQPREPQVYTLPPSQEEMTKNQVSLTCLVKGFYPSDIAVEWESNGQPENNYKTTPPVLDSDGSFFLYSRLTVDKSRWQEGNVFSCSVLHEALHSYTQKSLSLSLGK
light: B2 light
notes: also called HC5; LC6_m8
- TF-1 Proliferation Inhibition IC50 (hIL-13 [2]): 0.2 nM
- TARC Inhibition IC50 (A549 cells) (hIL-13 [3]): 1.02 nM
- IC50 (biotinylated hIL-13): 1.09 nM
- Kd [4]: 0.705 nM
- Kd [5]: 0.114 nM
- pSTAT6 Inhibition IC50 (HT-29 cells) (hIL-13 [6]): 0.28 nM

B7: Construct 143 (antibody, human IgG4, kappa)
heavy: EVQLQESGPGLVKPSETLSLTCTVSGFSLNAYSVNWIRQPPGKGLEWLGMIWGDGKIVYNSALKSRLTISKDSSKNQVSLKLSSVTAADTAVYYCAGDGYYPYAMDNWGQGTTVTVSSASTKGPSVFPLAPCSRSTSESTAALGCLVKDYFPEPVTVSWNSGALTSGVHTFPAVLQSSGLYSLSSVVTVPSSSLGTKTYTCNVDHKPSNTKVDKRVESKYGPPCPSCPAPEFLGGPSVFLFPPKPKDTLMISRTPEVTCVVVDVSQEDPEVQFNWYVDGVEVHNAKTKPREEQFNSTYRVVSVLTVLHQDWLNGKEYKCKVSNKGLPSSIEKTISKAKGQPREPQVYTLPPSQEEMTKNQVSLTCLVKGFYPSDIAVEWESNGQPENNYKTTPPVLDSDGSFFLYSRLTVDKSRWQEGNVFSCSVLHEALHSYTQKSLSLSLGK
light: B2 light
notes: also called HC1; LC6_m8
- TF-1 Proliferation Inhibition IC50 (hIL-13 [2]): 0.17 nM
- TARC Inhibition IC50 (A549 cells) (hIL-13 [3]): 0.92 nM
- IC50 (biotinylated hIL-13): 0.74 nM
- Kd [4]: 0.685 nM
- Kd [5]: 0.119 nM
- pSTAT6 Inhibition IC50 (HT-29 cells) (hIL-13 [6]): 0.36 nM

B8: Tralokinumab (antibody, V domains shown)
VH: QVQLVQSGAEVKKPGASVKVSCKASGYTFTNYGLSWVRQAPGQGLEWMGWISANNGDTNYGQEFQGRVTMTTDTSTSTAYMELRSLRSDDTAVYYCARDSSSSWARWFFDLWGRGTLVTVSS
VL: SYVLTQPPSVSVAPGKTARITCGGNIIGSKLVHWYQQKPGQAPVLVIYDDGDRPSGIPERFSGSNSGNTATLTISRVEAGDEADYYCQVWDTGSDPVVFGGGTKLTVL
- TF-1 Proliferation Inhibition IC50 (hIL-13 [2]): 0.59 nM
- TARC Inhibition IC50 (A549 cells) (hIL-13 [3]): 4.14 nM
- Kd [4]: 1.48 nM
- Kd [5]: 0.116 nM
- pSTAT6 Inhibition IC50 (HT-29 cells) (hIL-13 [6]): 0.41 nM
